The target of one assay is T1, Lyn SH3 H78A mutant (Homo sapiens, UniProt P07948, H78A).
T1 construct: The lyn SH3 domain was amplified by PCR using Phusion DNA polymerase; GST (N, cleaved yes); made in house; host or cells: E. coli BL21 (DE3)
Kind of assay: Binding to Lyn SH3 H78A mutant. To be noted: read-out: affinity. The protocol: (§1) The remarkable 6 nM affinity, far stronger than that of any reported non-protein ligand for SH3 domains, led us to study the structural basis of the observed affinity. […] The H78A and H96A double mutant binds much more weakly (>5 μM). […] That the majority of the stabilization energy comes from the first histidine coordination is consistent with the negative cooperativity generally seen for axial coordination to rhodium(II): a second coordination in solution is roughly two orders of magnitude less favorable.[40]–[43]
(§2) Abl SH3 domain preparation. The abl SH3 domain was amplified by PCR using Phusion DNA polymerase (Finnzymes). The
(§3) reactions were performed following manufacture's protocol with Phusion HF buffer and 5% DMSO. Primers were designed as
(§4) follows: 5'-[…]-3' (BamHI site underlined) and a reverse primer, 5'-
(§5) -3' (EcoRI site underlined). The resultant product was digested with
(§6) BamHI and EcoRI and subcloned into BamHI-EcoRI sites of pGex-KTO. Confirmed PCR fidelity by sequencing.
(§7) Hck SH3 domain preparation. The hck SH3 domain was amplified by PCR using Phusion DNA polymerase (Finnzymes). The
(§8) Lyn SH3 domain preparation. The lyn SH3 domain was amplified by PCR using Phusion DNA polymerase (Finnzymes). The […]
(§9) assessed by SDS-PAGE using 12% Bis-Tris gels (Invitrogen). […]
(§10) concentrated, and aliquoted for storage at –80 °C. Concentration was determined using the absorbance at 280 nm (NanoDrop, […]

A further assay has as its target T2, Lyn SH3 H96A mutant (Homo sapiens, UniProt P07948, H96A).
T2 construct: The lyn SH3 domain was amplified by PCR using Phusion DNA polymerase; GST (N, cleaved yes); made in house; host or cells: E. coli BL21 (DE3)
Kind of assay: Binding to Lyn SH3 H96A mutant. To be noted: read-out: affinity. The protocol: as §1, §2, §3, §4, §5, §6, §7, §8, §9, §10

For assay [1], the target named is T3, Lyn SH3 H78A and H96A double mutant (Homo sapiens, UniProt P07948, H78A/H96A).
T3 construct: The lyn SH3 domain was amplified by PCR using Phusion DNA polymerase; GST (N, cleaved yes); made in house; host or cells: E. coli BL21 (DE3)
Kind of assay: Binding to Lyn SH3 H78A and H96A double mutant. To be noted: read-out: affinity. The protocol:
as §1, §2, §3, §4, §5, §6, §7, §8, §9, §10

For assay [2], the target named is T4, Full-length Lyn kinase (GST-tagged Lyn B) (Homo sapiens, UniProt P07948).
T4 construct: Full-length Lyn kinase (74 nM) was treated with substrate peptide and ATP; purchased Promega
Kind of assay: Lyn kinase activation assay (ADP-Glo Kinase Assay). The class given is biochemical. To be noted: 74 nM Lyn, 5 min. The protocol:
We examined phosphorylation of a peptide substrate at low enzyme concentration (0.074 μM) and short reaction time (t = 5 min) to minimize the alternative autophosphorylation activation pathway (Fig. 6). Kinase activation with traditional ligands has typically required high ligand concentrations (∼1 mM) to overcome the intramolecular nature of the SH3–kinase domain interaction.
Fig. 6 Activation of Lyn kinase activity by a metallopeptide, S2E^Rh, and the parent peptide, S2E. […] Full-length Lyn kinase (74 nM) was treated with substrate peptide and ATP. Kinase activity was measured after 5 min in an adaptation of reported methods.[5] See ESI ^† for details.
All chemical reagents were purchased from Sigma-Aldrich and were used without further purification. […]
Kinase assay. ATP turnover by Lyn was measured using the ADP-GloTM Kinase Assay (Promega) according to the manufacturer’s protocol. Briefly, final concentrations of 72 μM ATP, 74 nM Lyn (GST-tagged Lyn B), and 240 μM substrate peptide (all from Promega) were combined in buffer (40 mM Tris, 50 μM dithiothreitol, 2 mM MnCl2 and 0.1 mg/mL BSA at pH 7.5) with a solution of the desired treatment (or control) in the same buffer for a final reaction volume of 5 µL. The kinase reaction was allowed to proceed at room temp. for 5 min from addition of ATP before the start of the ADP-Glo protocol halted the reaction. Chemiluminescence data were acquired on a Tecan Infinite M1000 microplate reader in white 384 well low volume plates (Corning Costar 3674) with an integration time of 250 ms per well. […]

Rh2(OAc)3 = dirhodium(II) triacetate, bound to the side-chain carboxylate Bounds are passed on as bounds.

T4 sequence (P07948 1-491 isoform P07948-2): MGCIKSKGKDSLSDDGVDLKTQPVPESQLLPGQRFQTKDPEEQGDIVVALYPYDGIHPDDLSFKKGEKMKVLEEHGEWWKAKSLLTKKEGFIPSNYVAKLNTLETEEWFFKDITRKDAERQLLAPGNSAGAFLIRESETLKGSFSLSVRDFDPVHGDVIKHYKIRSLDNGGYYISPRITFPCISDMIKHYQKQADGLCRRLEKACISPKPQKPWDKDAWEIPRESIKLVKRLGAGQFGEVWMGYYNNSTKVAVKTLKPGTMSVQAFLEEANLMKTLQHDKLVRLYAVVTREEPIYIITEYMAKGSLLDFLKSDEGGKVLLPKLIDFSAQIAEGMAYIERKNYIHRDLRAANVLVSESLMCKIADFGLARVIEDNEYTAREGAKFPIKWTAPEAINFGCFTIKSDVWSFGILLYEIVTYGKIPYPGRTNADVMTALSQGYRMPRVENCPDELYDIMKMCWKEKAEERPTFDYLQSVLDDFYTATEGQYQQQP
T1 sequence (P07948 63-123 H78A limits assumed): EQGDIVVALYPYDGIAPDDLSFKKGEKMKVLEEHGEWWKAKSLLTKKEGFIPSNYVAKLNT
T3 sequence (P07948 63-123 H78A/H96A limits assumed): as the sequence (P07948 63-123 H78A limits assumed) above, with H34A counted along it
T2 sequence (P07948 63-123 H96A limits assumed): as the sequence (P07948 63-123 H78A limits assumed) above, with A16H, H34A counted along it

“AcVELARRPLPPLPN-NH2 (Ac-VE(Rh2(OAc)3)LARRPLPPLPN-NH2; also: metal complex: Glu2 carboxylate bound to dirhodium(II) triacetate) [S2E^Rh, rhodium(II) metallopeptide made from S2E peptide (Ac…-NH2) and Rh2(tfa)(OAc)3]”: the Kd in the assay with Lyn SH3 H78A mutant came out at 20 nM.

In the case of “AcVELARRPLPPLPN-NH2 (Ac-VELARRPLPPLPN-NH2; also: Glu2 side-chain carboxylate bound to Rh2(OAc)3) [S2E^Rh, rhodium(II) metallopeptide made from S2E peptide (Ac…-NH2) and Rh2(tfa)(OAc)3]”, the Kd is 39 nM in the assay with Lyn SH3 H96A mutant and > 5000 nM in assay [1].

As for AcVELARRPLPPLPN-NH2 [S2E^Rh], in assay [2], the “concentration above which slight activation is seen” value is “above 100 μM”, the “concentration at which complete activation response was achieved” value was determined as 630 nM and the “concentration giving strong Lyn activation” value was determined as 200 nM.
